From patent US20090099029A1, “Methods and substrates for conducting assays” (Invitrogen Corporation, priority 2005, published 2009)
Where a chain is given by its changes, count along the chain named.

B1: MAP2K3(MEK3) (protein)
chain: MSKPPAPNPTPPRNLDSRTFITIGDRNFEVEADDLVTISELGRGAYGVVEKVRHAQSGTIMAVKRIRATVNSQEQKRLLMDLDINMRTVDCFYTVTFYGALFREGDVWICMELMDTSLDKFYRKVLDKNMTIPEDILGEIAVSIVRALEHLHSKLSVIHRDVKPSNVLINKEGHVKMCDFGISGYLVDSVAKTMDAGCKPYMAPERINPELNQKGYNVKSDVWSLGITMIEMAILRFPYESWGTPFQQLKQVVEEPSPQLPADRFSPEFVDFTAQCLRKNPAERMSYLELMEHPFFTLHKTKKTDIAAFVKEILGEDS
modifications: left off: a dimerising Fc or GST
B2: MAP3K5(ASK1) (protein)
chain: MSTEADEGITFSVPPFAPSGFCTIPEGGICRRGGAAAVGEGEEHQLPPPPPGSFWNVESAAAPGIGCPAATSSSSATRGRGSSVGGGSRRTTVAYVINEASQGQLVVAESEALQSLREACETVGATLETLHFGKLDFGETTVLDRFYNADIAVVEMSDAFRQPSLFYHLGVRESFSMANNIILYCDTNSDSLQSLKEIICQKNTMCTGNYTFVPYMITPHNKVYCCDSSFMKGLTELMQPNFELLLGPICLPLVDRFIQLLKVAQASSSQYFRESILNDIRKARNLYTGKELAAELARIRQRVDNIEVLTADIVINLLLSYRDIQDYDSIVKLVETLEKLPTFDLASHHHVKFHYAFALNRRNLPGDRAKALDIMIPMVQSEGQVASDMYCLVGRIYKDMFLDSNFTDTESRDHGASWFKKAFESEPTLQSGINYAVLLLAAGHQFESSFELRKVGVKLSSLLGKKGNLEKLQSYWEVGFFLGASVLANDHMRVIQASEKLFKLKTPAWYLKSIVETILIYKHFVKLTTEQPVAKQELVDFWMDFLVEATKTDVTVVRFPVLILEPTKIYQPSYLSINNEVEEKTISIWHVLPDDKKGIHEWNFSASSVRGVSISKFEERCCFLYVLHNSDDFQIYFCTELHCKKFFEMVNTITEEKGRSTEEGDCESDLLEYDYEYDENGDRVVLGKGTYGIVYAGRDLSNQVRIAIKEIPERDSRYSQPLHEEIALHKHLKHKNIVQYLGSFSENGFIKIFMEQVPGGSLSALLRSKWGPLKDNEQTIGFYTKQILEGLKYLHDNQIVHRDIKGDNVLINTYSGVLKISDFGTSKRLAGINPCTETFTGTLQYMAPEIIDKGPRGYGKAADIWSLGCTIIEMATGKPPFYELGEPQAAMFKVGMFKVHPEIPESMSAEAKAFILKCFEPDPDKRACANDLLVDEFLKVSSKKKKTQPKLSALSAGSNEYLRSISLPVPVLVEDTSSSSEYGSVSPDTELKVDPFSFKTRAKSCGERDVKGIRTLFLGIPDENFEDHSAPPSPEEKDSGFFMLRKDSERRATLHRILTEDQDKIVRNLMESLAQGAEEPKLKWEHITTLIASLREFVRSTDRKIIATTLSKLKLELDFDSHGISQVQVVLFGFQDAVNKVLRNHNIKPHWMFALDSIIRKAVQTAITILVPELRPHFSLASESDTADQEDLDVEDDHEEQPSNQTVRRPQAVIEDAVATSGVSTLSSTVSHDSQSAHRSLNVQLGRMKIETNRLLEELVRKEKELQALLHRAIEEKDQEIKHLKLKSQPIEIPELPVFHLNSSGTNTEDSELTDWLRVNGADEDTISRFLAEDYTLLDVLYYVTRDDLKCLRLRGGMLCTLWKAIIDFRNKQT
modifications: left off: a dimerising Fc or GST
B3: EPHA4 (protein)
chain: SRRRSKYSKAKQEADEEKHLNQGVRTYVDPFTYEDPNQAVREFAKEIDASCIKIEKVIGVGEFGEVCSGRLKVPGKREICVAIKTLKAGYTDKQRRDFLSEASIMGQFDHPNIIHLEGVVTKCKPVMIITEYMENGSLDAFLRKNDGRFTVIQLVGMLRGIGSGMKYLSDMSYVHRDLAARNILVNSNLVCKVSDFGMSRVLEDDPEAAYTTRGGKIPIRWTAPEAIAYRKFTSASDVWSYGIVMWEVMSYGERPYWDMSNQDVIKAIEEGYRLPPPMDCPIALHQLMLDCWQKERSDRPKFGQIVNMLDKLIRNPNSLKRTGTESSRPNTALLDPSSPEFSAVVSVGDWLQAIKMDRYKDNFTAAGYTTLEAVVHVNQEDLARIGITAITHQNKILSSVQAMRTQMQQMHGRMVPV
modifications: left off: a dimerising Fc or GST
B4: IRAK4 (protein)
chain: MNKPITPSTYVRCLNVGLIRKLSDFIDPQEGWKKLAVAIKKPSGDDRYNQFHIRRFEALLQTGKSPTSELLFDWGTTNCTVGDLVDLLIQNEFFAPASLLLPDAVPKTANTLPSKEAITVQQKQMPFCDKDRTLMTPVQNLEQSYMPPDSSSPENKSLEVSDTRFHSFSFYELKNVTNNFDERPISVGGNKMGEGGFGVVYKGYVNNTTVAVKKLAAMVDITTEELKQQFDQEIKVMAKCQHENLVELLGFSSDGDDLCLVYVYMPNGSLLDRLSCLDGTPPLSWHMRCKIAQGAANGINFLHENHHIHRDIKSANILLDEAFTAKISDFGLARASEKFAQTVMTSRIVGTTAYMAPEALRGEITPKSDIYSFGVVLLEIITGLPAVDEHREPQLLLDIKEEIEDEEKTIEDYIDKKMNDADSTSVEAMYSVASQCLHEKKNKRPDIKKVQQLLQEMTAS
modifications: left off: small tags and cut ends
B5: MAP3K2(MEKK2) (protein)
chain: MDDQQALNSIMQDLAVLHKASRPALSLQETRKAKSSSPKKQNDVRVKFEHRGEKRILQFPRPVKLEDLRSKAKIAFGQSMDLHYTNNELVIPLTTQDDLDKAVELLDRSIHMKSLKILLVINGSTQATNLEPLPSLEDLDNTVFGAERKKRLSIIGPTSRDRSSPPPGYIPDELHQVARNGSFTSINSEGEFIPESMDQMLDPLSLSSPENSGSGSCPSLDSPLDGESYPKSRMPRAQSYPDNHQEFSDYDNPIFEKFGKGGTYPRRYHVSYHHQEYNDGRKTFPRARRTQGTSLRSPVSFSPTDHSLSTSSGSSIFTPEYDDSRIRRRGSDIDNPTLTVMDISPPSRSPRAPTNWRLGKLLGQGAFGRVYLCYDVDTGRELAVKQVQFDPDSPETSKEVNALECEIQLLKNLLHERIVQYYGCLRDPQEKTLSIFMEYMPGGSIKDQLKAYGALTENVTRKYTRQILEGVHYLHSNMIVHRDIKGANILRDSTGNVKLGDFGASKRLQTICLSGTGMKSVTGTPYWMSPEVISGEGYGRKADIWSVACTVVEMLTEKPPWAEFEAMAAIFKIATQPTNPKLPPHVSDYTRDFLKRIFVEAKLRPSADELLRHMFVHYH
modifications: left off: a dimerising Fc or GST
B6: MAP3K9(MLK1) (protein)
chain: MEPSRALLGCLASAAAAAPPGEDGAGAGAEEEEEEEEEAAAAVGPGELGCDAPLPYWTAVFEYEAAGEDELTLRLGDVVEVLSKDSQVSGDEGWWTGQLNQRVGIFPSNYVTPRSAFSSRCQPGGEDPSCYPPIQLLEIDFAELTLEEIIGIGGFGKVYRAFWIGDEVAVKAARHDPDEDISQTIENVRQEAKLFAMLKHPNIIALRGVCLKEPNLCLVMEFARGGPLNRVLSGKRIPPDILVNWAVQIARGMNYLHDEAIVPIIHRDLKSSNILILQKVENGDLSNKILKITDFGLAREWHRTTKMSAAGTYAWMAPEVIRASMFSKGSDVWSYGVLLWELLTGEVPFRGIDGLAVAYGVAMNKLALPIPSTCPEPFAKLMEDCWNPDPHSRPSFTNILDQLTTIEESGFFEMPKDSFHCLQDNWKHEIQEMFDQLRAKEKELRTWEEELTRAALQQKNQEELLRRREQELAEREIDILERELNIIIHQLCQEKPRVKK
modifications: left off: a dimerising Fc or GST
B7: MAP3K11(MLK3) (protein)
chain: MEPLKSLFLKSPLGSWNGSGSGGGGGGGGGRPEGSPKAAGYANPVWTALFDYEPSGQDELALRKGDRVEVLSRDAAISGDEGWWAGQVGGQVGIFPSNYVSRGGGPPPCEVASFQELRLEEVIGIGGFGKVYRGSWRGELVAVKAARQDPDEDISVTAESVRQEARLFAMLAHPNIIALKAVCLEEPNLCLVMEYAAGGPLSRALAGRRVPPHVLVNWAVQIARGMHYLHCEALVPVIHRDLKSNNILLLQPIESDDMEHKTLKITDFGLAREWHKTTQMSAAGTYAWMAPEVIKASTFSKGSDVWSFGVLLWELLTGEVPYRGIDCLAVAYGVAVNKLTLPIPSTCPEPFAQLMADCWAQDPHRRPDFASILQQLEALEAQVLREMPRDSFHSMQEGWKREIQGLFDELRAKEKELLSREEELTRAAREQRSQAEQLRRREHLLAQWELEVFERELTLLLQQVDRERPHVRRRRGTFKRSKLRARDGGERISMPLDFKHRITVQASPGLDRRRNVFEVGPGDSPTFPRFRAIQLEPAEPGQAWGRQSPRRLEDSSNGERRACWAWGPSSPKPGEAQNGRRRSRMDEATWYLDSDDSSPLGSPSTPPALNGNPPRPSLEPEEPKRPVPAERGSSSGTPKLIQRALLRGTALLASLGLGRDLQPPGGPGRERGESPTTPPTPTPAPCPTEPPPSPLICFSLKTPDSPPTPAPLLLDLGIPVGQRSAKSPRREEEPRGGTVSPPPGTSRSAPGTPGTPRSPPLGLISRPRPSPLRSRIDPWSFVSAGPRPSPLPSPQPAPRRAPWTLFPDSDPFWDSPPANPFQGGPQDCRAQTKDMGAQAPWVPEAGP
modifications: left off: a dimerising Fc or GST
B8: MAP2K6(MKK6) (protein)
chain: MSQSKGKKRNPGLKIPKEAFEQPQTSSTPPRDLDSKACISIGNQNFEVKADDLEPIMELGRGAYGVVEKMRHVPSGQIMAVKRIRATVNSQEQKRLLMDLDISMRTVDCPFTVTFYGALFREGDVWICMELMDTSLDKFYKQVIDKGQTIPEDILGKIAVSIVKALEHLHSKLSVIHRDVKPSNVLINALGQVKMCDFGISGYLVDSVAKTIDAGCKPYMAPERINPELNQKGYSVKSDIWSLGITMIELAILRFPYDSWGTPFQQLKQVVEEPSPQLPADKFSAEFVDFTSQCLKKNSKERPTYPELMQHPFFTLHESKGTDVASFVKLILGD
modifications: left off: small tags and cut ends
B9: MAP2K6, mutant (protein)
chain: B8 chain with S207E, T211E
modifications: left off: small tags and cut ends

Test system: kinases of Table 6 on Myelin Basic Protein (MBP)
Assay: Kinase assay using MBP substrate, ProQ Diamond stain (Table 6)
Type: biochemical
Settings: kinase printed on MBP-coated slide; 20 uM ATP, 30° C.; ProQ Diamond Microarray Stain; graded Strong/Weak/Negative
Experimental: In this illustrative example, four-well slides were designed with a hydrophobic mask surrounding 4-wells of aldehyde- or epoxy-coated glass (smooth or ES grade; Erie Scientific (Portsmouth, N.H.)). […] Bovine, dephosphorylated, Myelin Basic Protein (MBP) was purchased from Upstate Biotechnology (#13-110). MBP was diluted to 1 mg/ml in PBS, applied to the slide surface, covered with a coverslip, and left overnight at 4° C. to coat the slide with the MBP. Slides were washed 3 times with water and spun dry before printing.
Kinases were purchased from Panvera (Invitrogen, Carlsbad, Calif.), diluted in printing buffer (50 mM Tris pH 7.5, 25% glyercol, 0.05% TritonX-100, 2 mM DTT) and deposited using a GeneMachine OmniGrid100. Slides were stored at −20° C.
Reactions were performed following removal of the slide from the freezer. Reaction buffer (20 mM HEPES pH 7.5, 4 mM MgCl2, 2 mM DTT, 20 uM ATP, 5% DMSO) was added with or without inhibitor, a coverslip applied, and the slide placed at 30° C. for the appropriate reaction time. The slide was washed with water to stop the reaction (3 times) and spun dry. ProQ Diamond Microarray Stain (Invitrogen #P33706) was applied, covered with a coverslip, and the slide was incubated in the dark at room temperature for 30 minutes. The slide was destained and washed three times with water, and spun dry.

Molecule	MBP Kinase Activity
B1	Negative
B2	Weak
B3	Strong
B4	Strong
B5	Weak
B6	Strong
B7	Negative
B8	Weak
B9	Negative
